Data published in patent US20030171255.
Like-named read-outs stand apart in the source and are kept apart here.

T1: recombinant DARPP-32 phosphorylated in vitro at Ser137 by CK1
T1 sequence (Q9UD71 1-204, species assumed, looked up): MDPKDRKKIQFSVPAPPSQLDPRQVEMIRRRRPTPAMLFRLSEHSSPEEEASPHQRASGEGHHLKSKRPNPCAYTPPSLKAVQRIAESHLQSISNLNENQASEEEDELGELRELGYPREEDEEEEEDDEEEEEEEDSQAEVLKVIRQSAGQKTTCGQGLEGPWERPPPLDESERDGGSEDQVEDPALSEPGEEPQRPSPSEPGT


What was measured:
[1] = tested on: recombinant DARPP-32 phosphorylated in vitro at Ser137 by CK1
[2] = biological target: T1, recombinant DARPP-32 phosphorylated in …; remark: listed apart in the source

Row | Molecule | dephosphorylation of phospho-Ser137-DARPP-32 (release of 32P) [1] | KM [2] [µM] | Vmax, µmol mg^-1 min^-1 (µmol mg^-1 min^-1) [2] | dephosphorylation of phospho-Ser137-DARPP-32 (release of 32P) [2] | kcat [2] [s⁻¹] | kcat/KM [2] [M⁻¹ s⁻¹] | also measured
1 | recombinant His-tagged PP2Cb (protein phosphatase 2C beta isoform) cloned from rat striatum | the PP2Ca, b and g demonstrated similar initial rates of dephosphorylation | – | – | – | – | – | KM [1]: 25.3 µM; Vmax, µmol mg^-1 min^-1 (µmol mg^-1 min^-1) [1]: 0.99; kcat [1]: 0.78 s⁻¹; kcat/KM [1]: 31000 M⁻¹ s⁻¹
2 | recombinant His-tagged PP2Cd (protein phosphatase 2C delta isoform) cloned from rat striatum | PP2Cd did not dephosphorylate phospho-Ser137-DARPP-32 | – | – | – | – | – | –
3 | CK1 (casein kinase 1) obtained from New England BioLabs | – | – | – | – | – | – | stoichiometry of in vitro phosphorylation at Ser137 (recombinant DARPP-32): stoichiometry of 1 mol/mol
4 | recombinant His-tagged PP2Ca (protein phosphatase 2C alpha isoform) cloned from rat striatum (protein) MGAFLDKPKMEKHNAQGQGNGLRYGLSSMQGWRVEMEDAHTAVIGLPSGLETWSFFAVYDGHAGSQVAKYCCEHLLDHITNNQDFKGSAGAPSVENVKNGIRTGFLEIDEHMRVMSEKKHGADRSGSTAVGVLISPQHTYFINCGDSRGLLCRNRKVHFFTQDHKPSNPLEKERIQNAGGSVMIQRVNGSLAVSRALGDFDYKCVHGKGPTEQLVSPEPEVHDIERSEEDDQFIILACDGIWDVMGNEELCDFVRSRLEVTDDLEKVCNEVVDTCLYKGSRDNMSVILICFPNAPKVSAEAVKKEAELDKYLENRVEEIIKKQGEGVPDLVHVMRTLASENIPSLPPGGELASKRNVIEAVYNRLNPYKNDDTDSASTDDMW | – | 13.1 | 0.39 | the PP2Ca, b and g demonstrated similar initial rates of dephosphorylation | 0.31 | 23000 | –
5 | recombinant His-tagged PP2Cg (protein phosphatase 2C gamma isoform) cloned from rat striatum (protein) MGAYLSQPNTVKCSGDGVGAPRLPLPYGFSAMQGWRVSMEDAHNCIPELDNETAMFSVYDGHGGEEVALYCAKYLPDIIKDQKAYKEGKLQKALQDAFLAIDAKLTTDEVIKELAQIAGRPTEDEDDKEKVADEDDVDNEEAALLHEEATMTIEELLTRYGQNCQKGPPHTKSGTGIGDEPEPQGLNGEAGPEDPSRETPSQENGPTAKGHTGPSSNSDHGTEAGQIGEPGTATGEAGPSCSSASDKLPRVAKSKFFEDSEDESDEVEEEEDDSEECSEDEDGYSSEEAENEEDEDDTEEAEEDDDEEMMVPGMEGKEEPGSDSGTTAVVALIRGKQLIVANAGDSRCVVSEAGKALDMSYDHKPEDEVELARIKNAGGKVTMDGRVNGGLNLSRAIGDHFYKRNKNLPPQEQMISALPDIKVLTLTDDHEFMVIACDGIWNVMSSQEVVDFIQSKISQRDENGELRLLSSIVEELLDQCLAPDTSGDGTGCDNMTCIIICFKPRNTVELQPESGKRKLEEALSTEGAEENGNSDKKKAKRD | – | 7 | 0.31 | the PP2Ca, b and g demonstrated similar initial rates of dephosphorylation | 0.32 | 45000 | –
